# In patent publication US20260001891A1 (KEYMED BIOSCIENCES CHENGDU, published 2026):
# B1: ADC-126 (antibody, human IgG1, V domains shown)
# VH: QVQLQQSGAEVKKPGSSVKVSCKASGYTFTNYYIYWVRQAPGQGLEWIGGINPTSGGSNFNEKFKTRVTITVDESTNTAYMELSSLRSEDTAFYFCARQGLWFDSDGRGFDFWGQGSTVTVSS
# VL: DIQMTQSPSSLSASVGDRVTITCRSSQNIVHSNGNTYLDWYQQTPGKAPKLLIYKVSNRFSGVPSRFSGSGSGTDFTFTISSLQPEDIATYYCFQYSHVPWTFGQGTKLQITR
# modifications: linker-drug LD-105 (maleimide) coupled to cysteine sulfhydryls after TCEP reduction; average drug loading y=4.96 per antibody; positions not given
# B2: ADC-128 (antibody, human IgG1, V domains shown)
# VH: B1 VH
# VL: B1 VL
# modifications: linker-drug LD-13 coupled to cysteine sulfhydryls after TCEP reduction; average drug loading y=7.62 per antibody; positions not given
# B3: ADC-129 (antibody, human IgG1, V domains shown)
# VH: B1 VH
# VL: B1 VL
# modifications: linker-drug LD-99 coupled to cysteine sulfhydryls after TCEP reduction; average drug loading y=7.11 per antibody; positions not given
# Molecular target: EGFR (human (endogenous on human cancer cell …, UniProt P00533 25-1210))
# Test: cell-based or functional assay
row,"IC50 of in vitro proliferation inhibition, EGFR-positive MDA-MB-468 cells (CCK8, 6 days)",Binder
1,0.21 nM,B1
2,0.21 nM,B2
3,0.2 nM,B3
